The text below walks through data of patent US7700318 (AMPROTEIN, dated 2010).

The assay deals with T1, recombinant human IL-1 receptor extracellular domain (human, UniProt P14778 18-336).
T1 construct: extracellular domain; also called in-house mammalian recombinant IL-receptor extracellular domain
T1 sequence (looked up): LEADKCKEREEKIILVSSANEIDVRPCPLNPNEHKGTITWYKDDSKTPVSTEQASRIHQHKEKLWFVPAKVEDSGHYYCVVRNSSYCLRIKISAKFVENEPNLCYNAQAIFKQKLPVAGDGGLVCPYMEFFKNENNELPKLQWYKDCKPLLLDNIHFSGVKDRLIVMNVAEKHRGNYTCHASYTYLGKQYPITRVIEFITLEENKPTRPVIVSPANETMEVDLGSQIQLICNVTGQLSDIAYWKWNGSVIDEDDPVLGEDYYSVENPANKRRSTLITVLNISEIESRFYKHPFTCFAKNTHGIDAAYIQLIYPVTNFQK
As to the kind of experiment: ELISA: test proteins coated on 96-well plate, IL-1 receptor extracellular domain incubated at 37 C, detected with rabbit anti human IL-1 receptor antibodies and goat anti rabbit HRP (FIG. 5). The procedure: For IL-1 receptor binding assay, recombinant human IL-1 receptor extracellular domain was first produced in house using a mammalian host. TNFRII-Fc-IL-1ra, negative control TNFRII-Fc and positive control IL-1ra (KINERET) have been coated to 96-well plate. IL-1 receptor is then incubated at 37° C. for binding. The binding is detected using rabbit anti human IL-1 receptor extracellular domain antibodies, followed by goat anti rabbit […] conjugated with HRP.
For orientation: In an ELISA, binding on a coated surface is turned into a signal by an enzyme label.

B1: TNFRII-Fc (ENBREL) (Fc fusion, UniProt P20333 23-257, looked up)
chain: LPAQVAFTPYAPEPGSTCRLREYYDQTAQMCCSKCSPGQHAKVFCTKTSDTVCDSCEDSTYTQLWNWVPECLSCGSRCSSDQVETQACTREQNRICTCRPGWYCALSKQEGCRLCAPLRKCRPGFGVARPGTETSDVVCKPCAPGTFSNTTSSTDICRPHQICNVVAIPGNASMDAVCTSTSPTRSMAPGAVHLPQPVSTRSQHTQPTPEPSTAPSTSFLLPMGPSPPAEGSTGD
notes: Marketed product; also called marketed TNFRII-Fc (ENBREL); not shown: Fc part of the marketed product
Take B1: the binding result is reported as “no binding”.
